According to the supplement of paper PMC10724198:
± gives the standard deviation of the averaged measurements.

The sequences below were run on Saccharomyces cerevisiae (assay: protein stability index of tFT-peptide fusion (C-terminal peptide) (PSI (0-1 scale)); higher = more stable (slower turnover)). Conditions: genetic background: wild type; temperature: 30 C.
Procedure: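 MPS profiling in S. cerevisiae of the yeast C-terminome library: the last 12 aa of each annotated ORF are fused to the C-terminus of a sfGFP-mCherry timer, after a GGGS linker. Cells are FACS-sorted into 8 mCherry/sfGFP bins and deep-sequenced. PSI runs from 0 (unstable) to 1 (stable); wild type and das1Δ backgrounds, two technical replicates each.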
Sequence LARLKTCVLLIN [YML122C C-terminal 12 aa] has a protein stability index of 0.154 ± 0.0076.
Work on LCGAPNCKGFLN [SET1 C-terminal 12 aa] yielded a protein stability index of 0.671 ± 0.036.
LEKSTNPIKKNN [VOA1 C-terminal 12 aa] was tested, and the protein stability index was 0.765 ± 0.038.
For LEKVLNQIGLKN [YNL011C C-terminal 12 aa], the protein stability index was 0.6425 ± 0.0062.
With LEPQESKPTIDH [AIM34 C-terminal 12 aa] the protein stability index was 0.6899 ± 0.005.
In the case of LFCYCSCDSYES [YBL100C C-terminal 12 aa], the protein stability index is reported as 0.668 ± 0.031.
With LFDARFERKNPH [SRB8 C-terminal 12 aa] the protein stability index was 0.7112 ± 0.0032.
Work on “LGFIQNSTIVCQ [YMR306C-A C-terminal 12 aa]” yielded a protein stability index of 0.494 ± 0.019.
LGKKKPPSRLFR [CDC25 C-terminal 12 aa] showed a protein stability index of 0.715 ± 0.035.
Sequence LGLSLRRGTEIW [MRP8 C-terminal 12 aa] has a protein stability index of 0.72218 ± 0.00069.
In the case of “LGSNCVFLAIFR [YPL222C-A C-terminal 12 aa]”, the protein stability index is reported as 0.648 ± 0.02.
Work on LHTEREKKKKKF [YKR040C C-terminal 12 aa] yielded a protein stability index of 0.682 ± 0.1.
Sequence LHVVSSAYFEIQ [YEL075C C-terminal 12 aa] has a protein stability index of 0.626 ± 0.044.
With LICQTESNPKIV [VPS8 C-terminal 12 aa] the protein stability index was 0.694 ± 0.036.
Sequence LIVSFFYKRNAL [IQG1 C-terminal 12 aa] has a protein stability index of 0.584 ± 0.015.
Sequence LIVSYCASVAFG [ATG12 C-terminal 12 aa] has a protein stability index of 0.382 ± 0.0029.
For LKDQIVETRTPI [ERG27 C-terminal 12 aa], the protein stability index was 0.664 ± 0.02.
With LKLKRDLLRLKR [CIP1 C-terminal 12 aa] the protein stability index was 0.651 ± 0.021.
With LKQTVESLIKEL [VPS51 C-terminal 12 aa] the protein stability index was 0.711 ± 0.072.
LKSATESFVATF [ATP1 C-terminal 12 aa] gave a protein stability index of 0.694 ± 0.014.
LKSVKHSIRVYT [YPR012W C-terminal 12 aa] showed a protein stability index of 0.604 ± 0.028.
For LLFGDEVVACKD [YDL172C C-terminal 12 aa], the protein stability index was 0.691 ± 0.011.
In the case of LLGAITALFGLI [PLB2 C-terminal 12 aa], the protein stability index is reported as 0.658 ± 0.029.
In the case of LLKKLKVVFGIE [FUN12 C-terminal 12 aa], the protein stability index is reported as 0.68523 ± 0.0002.
In the case of LLLTILLFYPPY [YBL109W C-terminal 12 aa], the protein stability index is reported as 0.318 ± 0.022.
In the case of LLTAMSAQISFD [AAD16 C-terminal 12 aa], the protein stability index is reported as 0.72 ± 0.012.
LLYHMDLLLKVK [VID28 C-terminal 12 aa] was tested, and the protein stability index was 0.365 ± 0.015.
Work on “LMQLLLGSLGLS [YKL145W-A C-terminal 12 aa]” yielded a protein stability index of 0.716 ± 0.031.
LNDMVLELKENY [NNF1 C-terminal 12 aa] showed a protein stability index of 0.704 ± 0.0096.
Work on LNEPKDSAENKI [SRC1 C-terminal 12 aa] yielded a protein stability index of 0.659 ± 0.026.
Sequence LNWVFSFYSCSE [YIL163C C-terminal 12 aa] has a protein stability index of 0.688 ± 0.019.
With LQYKKVGKWRED [URB2 C-terminal 12 aa] the protein stability index was 0.736 ± 0.0096.
For LRKAAANNCIQF [SUA5 C-terminal 12 aa], the protein stability index was 0.7134 ± 0.0016.
In the case of LRKRLSCYMLIL [YDR114C C-terminal 12 aa], the protein stability index is reported as 0.4114 ± 0.0012.
For LRNQSPFTSSNE [YKL107W C-terminal 12 aa], the protein stability index was 0.682 ± 0.029.
LRRGEPDNKVNR [SPG4 C-terminal 12 aa] was tested, and the protein stability index was 0.708 ± 0.012.
For LRVYENFQKFIK [YMR262W C-terminal 12 aa], the protein stability index was 0.705 ± 0.04.
With LSDASYDTYELV [SPG5 C-terminal 12 aa] the protein stability index was 0.743 ± 0.01.
In the case of LSEKIYDAFGKL [MUS81 C-terminal 12 aa], the protein stability index is reported as 0.7271 ± 0.0047.
LSIFGFDMFNRK [YMR1 C-terminal 12 aa] showed a protein stability index of 0.703 ± 0.028.
Work on LSNMLNQFILNL [YLR202C C-terminal 12 aa] yielded a protein stability index of 0.74991 ± 6.5e-05.
LSQIVDIWNKDI [MNT2 C-terminal 12 aa] gave a protein stability index of 0.79 ± 0.044.
With LSTFFLFHNPCN [YGL239C C-terminal 12 aa] the protein stability index was 0.706 ± 0.079.
In the case of LSTLGVGAAIIS [AVT1 C-terminal 12 aa], the protein stability index is reported as 0.675 ± 0.035.
LSVHPLKPCDPN [INP52 C-terminal 12 aa] gave a protein stability index of 0.661 ± 0.042.
For LTARKVNALRHR [KNH1 C-terminal 12 aa], the protein stability index was 0.694 ± 0.048.
Sequence LTILRISELSMN [MRPL49 C-terminal 12 aa] has a protein stability index of 0.354 ± 0.0057.
Work on LTLNWGVEIVKK [RDI1 C-terminal 12 aa] yielded a protein stability index of 0.725 ± 0.017.
“LTMLPPMAPLLS [YMR158W-B C-terminal 12 aa]” was tested, and the protein stability index was 0.653 ± 0.018.
With LTPADLQFLFNN [RAD16 C-terminal 12 aa] the protein stability index was 0.708 ± 0.017.
LTQVEKPRGIFD [DDC1 C-terminal 12 aa] gave a protein stability index of 0.674 ± 0.013.
In the case of LVEGQTFDADVE [EGD1 C-terminal 12 aa], the protein stability index is reported as 0.671 ± 0.033.
Work on LVLKQRQEQEKQ [GDI1 C-terminal 12 aa] yielded a protein stability index of 0.717 ± 0.06.
LVRFIEAEKFVG [SNX3 C-terminal 12 aa] was tested, and the protein stability index was 0.6912 ± 0.0047.
LYDNIRSGNFGI [MSB1 C-terminal 12 aa] showed a protein stability index of 0.6503 ± 0.00092.
In the case of MDNKQQLSSGRT [SNA3 C-terminal 12 aa], the protein stability index is reported as 0.686 ± 0.021.
Sequence MFKCARQSEFDK [MTG2 C-terminal 12 aa] has a protein stability index of 0.6829 ± 0.0037.
In the case of MKKLQNKKSSAV [CAB5 C-terminal 12 aa], the protein stability index is reported as 0.677 ± 0.021.
In the case of MQRVSTQHEKSS [PMA2 C-terminal 12 aa], the protein stability index is reported as 0.711 ± 0.096.
Work on MQTHYILMKAQW [PPM1 C-terminal 12 aa] yielded a protein stability index of 0.5353 ± 0.0021.
With MSSFLSKKENNN [SNT1 C-terminal 12 aa] the protein stability index was 0.6618 ± 0.005.
In the case of MTGTCFMTDLAP [YKL097C C-terminal 12 aa], the protein stability index is reported as 0.695 ± 0.021.
In the case of MTLDSWQPLTPK [INP53 C-terminal 12 aa], the protein stability index is reported as 0.712 ± 0.03.
With NEEYIEELDLVL [HSH155 C-terminal 12 aa] the protein stability index was 0.674 ± 0.015.
Work on NFQTHYRDELLQ [REH1 C-terminal 12 aa] yielded a protein stability index of 0.584 ± 0.016.
Work on “NFVSQYRNDEIY [YOR381W-A C-terminal 12 aa]” yielded a protein stability index of 0.659 ± 0.023.
Sequence NGHVSKKAKVTK [LYS21 C-terminal 12 aa] has a protein stability index of 0.667 ± 0.021.
NIAPFPFFGKRR [PMD1 C-terminal 12 aa] gave a protein stability index of 0.674 ± 0.02.
Work on NIEKGVNFVASK [MDH1 C-terminal 12 aa] yielded a protein stability index of 0.677 ± 0.052.
NIGDFSPDLMDS [MSS11 C-terminal 12 aa] gave a protein stability index of 0.713 ± 0.0096.
Work on NIKALNQSKSHM [SPO77 C-terminal 12 aa] yielded a protein stability index of 0.6701 ± 0.003.
With NKKPKNKKKGRK [SRP72 C-terminal 12 aa] the protein stability index was 0.646 ± 0.0076.
In the case of NKRLKKILNNTK [RME1 C-terminal 12 aa], the protein stability index is reported as 0.674 ± 0.023.
Work on NKVEAFKSLYTF [NUP60 C-terminal 12 aa] yielded a protein stability index of 0.591 ± 0.013.
For NLKNGVTLESPE [UBP12 C-terminal 12 aa], the protein stability index was 0.6889 ± 0.0028.
Work on NLMVADDKVWRV [MCM3 C-terminal 12 aa] yielded a protein stability index of 0.7005 ± 0.0019.
Work on NLVASKQLSTYK [RAV2 C-terminal 12 aa] yielded a protein stability index of 0.641 ± 0.031.
Sequence NMLFICLNVPHY [YGL114W C-terminal 12 aa] has a protein stability index of 0.632 ± 0.007.
In the case of NNASEDDRGIRV [STB2 C-terminal 12 aa], the protein stability index is reported as 0.685 ± 0.089.
Sequence NNIKWYLHWKFI [VPR1 C-terminal 12 aa] has a protein stability index of 0.168 ± 0.019.
In the case of NNNMESFPEMSP [GLE1 C-terminal 12 aa], the protein stability index is reported as 0.72 ± 0.017.
NNNNNNNDDDDK [CTK1 C-terminal 12 aa] showed a protein stability index of 0.691 ± 0.028.
